Where a chain is given by its changes, count along the chain named. In names and notes the source's numbering stands.
T1: β-catenin (human, UniProt P35222 2-781)
T1 construct: Endogenous protein co-immunoprecipitated from cell lysates or nuclear fractions; also called nuclear β-catenin
T1 sequence (looked up): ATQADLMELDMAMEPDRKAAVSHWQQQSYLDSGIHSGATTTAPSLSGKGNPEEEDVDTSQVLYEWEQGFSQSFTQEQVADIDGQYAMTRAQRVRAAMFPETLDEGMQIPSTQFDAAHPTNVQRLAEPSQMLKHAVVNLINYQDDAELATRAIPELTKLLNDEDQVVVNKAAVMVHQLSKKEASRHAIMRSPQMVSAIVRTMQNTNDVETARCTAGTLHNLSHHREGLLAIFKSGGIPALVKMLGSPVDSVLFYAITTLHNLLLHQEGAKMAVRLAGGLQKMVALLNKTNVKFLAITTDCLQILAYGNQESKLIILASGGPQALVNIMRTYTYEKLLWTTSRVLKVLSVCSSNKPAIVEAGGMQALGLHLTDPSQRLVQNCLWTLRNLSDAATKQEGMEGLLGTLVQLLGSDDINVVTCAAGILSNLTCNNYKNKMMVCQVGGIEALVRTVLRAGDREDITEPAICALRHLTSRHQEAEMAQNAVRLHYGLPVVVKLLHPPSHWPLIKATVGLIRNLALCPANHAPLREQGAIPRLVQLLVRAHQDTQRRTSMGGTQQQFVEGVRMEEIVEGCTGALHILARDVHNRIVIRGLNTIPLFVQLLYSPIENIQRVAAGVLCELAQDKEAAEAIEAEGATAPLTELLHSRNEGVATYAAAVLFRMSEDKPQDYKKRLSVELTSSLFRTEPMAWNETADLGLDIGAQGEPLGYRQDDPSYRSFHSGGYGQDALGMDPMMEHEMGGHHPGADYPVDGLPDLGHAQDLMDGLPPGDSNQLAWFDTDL

T2: HA-tagged PSPC1 (wild type) (human, UniProt Q8WXF1 1-523)
T2 construct: Full-length PSPC1 cDNA cloned into pcDNA3.0-HA and expressed in 293T or SK-hep1 cells; also called HA-PSPC1; wild-type PSPC1; not shown: HA tag from the pcDNA3.0-HA plasmid
T2 sequence: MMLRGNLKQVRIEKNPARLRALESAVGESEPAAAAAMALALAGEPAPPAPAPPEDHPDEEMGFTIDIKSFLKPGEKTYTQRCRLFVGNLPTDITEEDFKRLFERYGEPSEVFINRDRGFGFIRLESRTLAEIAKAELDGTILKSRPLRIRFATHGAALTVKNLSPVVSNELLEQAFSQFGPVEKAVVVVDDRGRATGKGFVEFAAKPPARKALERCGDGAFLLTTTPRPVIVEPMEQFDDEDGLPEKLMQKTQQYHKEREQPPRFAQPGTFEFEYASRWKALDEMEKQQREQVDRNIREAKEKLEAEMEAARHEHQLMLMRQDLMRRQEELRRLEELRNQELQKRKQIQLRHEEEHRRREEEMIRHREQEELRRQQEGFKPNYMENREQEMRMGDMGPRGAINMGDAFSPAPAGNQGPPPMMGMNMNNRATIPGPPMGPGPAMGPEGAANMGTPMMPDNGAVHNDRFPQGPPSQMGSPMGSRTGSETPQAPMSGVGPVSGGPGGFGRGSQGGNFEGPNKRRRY

B1: EGFP-conjugated PSPC1-CT131 (PSPC1 C-terminal 131 fragment) (other)
chain: MGDMGPRGAINMGDAFSPAPAGNQGPPPMMGMNMNNRATIPGPPMGPGPAMGPEGAANMGTPMMPDNGAVHNDRFPQGPPSQMGSPMGSRTGSETPQAPMSGVGPVSGGPGGFGRGSQGGNFEGPNKRRRY
notes: PSPC1-CT131 cloned into pEGFP-C2 and expressed in Mahlavu cells; also called PSPC1-CT131-EGFP; EGFP-PSPC1-CT; not shown: EGFP from the pEGFP-C2 plasmid
B2: Paraspeckle component 1 (PSPC1), human (other)
chain: T2 sequence
notes: Endogenous PSPC1 of human HCC cell lines (Huh-7, Mahlavu); also called endogenous PSPC1; nuclear PSPC1
B3: PSPC1-Y523F mutant (HA-tagged) (other)
chain: T2 sequence with Y523F
notes: All PSPC1 mutants were generated in a pCDNA3.0-HA plasmid; also called Y523F PSPC1 mutant; HA-tagged Y523F mutant; not shown: HA tag from the pCDNA3.0-HA plasmid
B4: Flag-tagged PTK6 kinase-dead mutant (PTK6-K219M) (enzyme)
chain: not shown
notes: also called PTK6-KM; KM mutant; not shown: Flag tag

Assays:
[1] = biological target: B2; experiment: conclusion drawn from expression and fractionation experiments in Mahlavu cells; no direct binding assay described
[2] = biological target: T1, β-catenin; experiment: IP/western blotting, Huh-7 cells with HGF stimulation (FIG. 3b)
Procedure: (§1) (a-b) Huh-7 treated with or without HGF (10 ng/ml) for EMT induction. Under HGF stimulation, nuclear PSPC1 interacted with β-catenin and loss of PTK6 interaction owing to an increase of cytosolic PTK6 accumulation in HGF-induced EMT model in IP/westem blotting analysis. Arrowhead is the IgG heavy chain. Arrows are indicated proteins after IB. (c) Nuclear (SP1 as marker) and cytosolic (α-tubulin as marker) localization of PSPC1/PTK6 interaction and β-catenin analyzed by western blotting analysis in SK-hep1 cells. PSPC1-Y523F mutant further enhanced nuclear localization of β-catenin. (d) Nuclear (SP1 as marker) localization of PSPC1/PTK6 interaction and βcatenin analyzed by IP/western blotting analysis in SK-hep1 cells. Y523F PSPC1 mutant further enhanced nuclear interaction with β-catenin but not PTK6. […] Promoter activation (fold) was calculated relative to vector alone (Mock) in cells. […] (h) Secreted cytokines Wnt1 and Wnt3a protein expression measured by ELISA assays of conditional medium after transfection of divergent PSPC1/PTK6 expression constructs in SK-hep1 cells.

[3] = biological target: T1, β-catenin; experiment: IP/western blotting of nuclear fraction, SK-hep1 cells (FIG. 3d)
Procedure: as §1

[4] = biological target: T2, HA-tagged PSPC1 (wild type); experiment: subcellular fractionation and western blotting, SK-hep1 cells (FIG. 1e)

Binder: B1
binding result [1]: binds

Binder: B2
binding result [2]: binds

Binder: B3
binding result [3]: binds

Binder: B4
binding result [4]: no binding

— US20210087239A1 (ACADEMIA SINICA, published 2021)
